The star is where a group is joined. Nonanoyl = CCCCCCCCC(=O)*
What was measured:
CCR5 [1] = target: T1, CCR5 (Homo sapiens (Human), UniProt P51681); assay: cell-based or functional assay
CCR5 [2] = target: T1, CCR5; assay: cell-based or functional assay; remark: listed apart in the source

Average Infectivity IC50 (cell-free viral infection assay) (CCR5 [1]) [nM]	Cell-Fusion Result For Comparison (IC50) (CCR5 [1]) [nM]	Mean Relative Potency (IC50 in the envelope-mediated cell fusion assay, relative to AOP-RANTES = 100) (CCR5 [2])	Binder
0.145	0.48	100 relative to AOP-RANTES = 100 (arbitrary value of the control)	Aminooxypentane-RANTES (2-68) (ligand, ends and bridges not checked) {CH3‑(CH2)4‑O‑N:CH‑CO}-PYSSDTTPCCFAYIARPLPRAHIKEYFYTSGKCSNPAVVFVTRKNRQVCANPEKKWVREYINSLEMS
–	–	45 relative to AOP-RANTES = 100	AOP-RANTES-K(palmitoyl)-G (ligand, N-terminal aminooxypentane in place of Ser 1; epsilon amino group of the Lys of the C-terminal extension carries glyoxylyl=AoA-ethylene diamine-palmitate ("palmitoyl"), joined by an oxime bond) PYSSDTTPCCFAYIARPLPRAHIKEYFYTSGKCSNPAVVFVTRKNRQVCANPEKKWVREYINSLEMSKG
0.024	0.097	–	n-Nonanoyl-RANTES (2-68) (ligand, ends and bridges not checked) Nonanoyl-PYSSDTTPCCFAYIARPLPRAHIKEYFYTSGKCSNPAVVFVTRKNRQVCANPEKKWVREYINSLEMS
–	–	13 relative to AOP-RANTES = 100	NNY-…-L19I-RANTES (20-68) (ligand, ends and bridges not checked) Nonanoyl-PYSSDTTPCCFAYIARPIPRAHIKEYFYTSGKCSNPAVVFVTRKNRQVCANPEKKWVREYINSLEMS
–	–	15 relative to AOP-RANTES = 100	NNY-PYSSDTTPCCFAYI-A16S-RANTES (17-68) (ligand, ends and bridges not checked) Nonanoyl-PYSSDTTPCCFAYISRPLPRAHIKEYFYTSGKCSNPAVVFVTRKNRQVCANPEKKWVREYINSLEMS
